Source: paper PMC6351176 (Molecular microbiology, 2018)

B1: purified DnaD winged helix domain, wild type (B. subtilis, amino acids 1-128) (domain or fragment, UniProt P39787 1-128, looked up)
chain: MKKQQFIDMQEQGTSTIPNLLLTHYKQLGLNETELILLLKIKMHLEKGSYFPTPNQLQEGMSISVEECTNRLRMFIQKGFLFIEECEDQNGIKFEKYSLQPLWGKLYEYIQLAQNQTQERKAEGEQKS

Legend:
[1] = target: the molecule itself; assay: cross-linking
[2] = target: B1; assay: cross-linking

Binder	stoichiometry N [1]	further results
B1		binding result [1]: binds
purified DnaD winged helix domain I83A (B. subtilis, amino acids 1-128) (domain or fragment, UniProt P39787 1-128, looked up) MKKQQFIDMQEQGTSTIPNLLLTHYKQLGLNETELILLLKIKMHLEKGSYFPTPNQLQEGMSISVEECTNRLRMFIQKGFLFAEECEDQNGIKFEKYSLQPLWGKLYEYIQLAQNQTQERKAEGEQKS	4	
purified DnaA domain I, wild type (B. subtilis, amino acids 1-82) (domain or fragment, UniProt P05648 1-82, looked up) MENILDLWNQALAQIEKKLSKPSFETWMKSTKAHSLQGDTLTITAPNEFARDWLESRYLHLIADTIYELTGEELSIKFVIPQ		binding result [2]: binds
purified DnaD winged helix domain F51A (B. subtilis, amino acids 1-128) (domain or fragment, UniProt P39787 1-128, looked up) MKKQQFIDMQEQGTSTIPNLLLTHYKQLGLNETELILLLKIKMHLEKGSYAPTPNQLQEGMSISVEECTNRLRMFIQKGFLFIEECEDQNGIKFEKYSLQPLWGKLYEYIQLAQNQTQERKAEGEQKS	4	
